Where “and” joins values, the source holds several entries; their conditions need not be identical. Equal entries are not always repeated.
T1: AtNDK1 (Arabidopsis nucleoside diphosphate kinase 1) (Arabidopsis thaliana, UniProt P39207)
T1 construct: gene NDK1; full open reading frame in pGEX6P-1 (BamHI/EcoRI, synthetic), GST tag cut with PreScission protease, E. coli T7 Express, size exclusion purified, hexamer
T1 sequence (P39207 1-149): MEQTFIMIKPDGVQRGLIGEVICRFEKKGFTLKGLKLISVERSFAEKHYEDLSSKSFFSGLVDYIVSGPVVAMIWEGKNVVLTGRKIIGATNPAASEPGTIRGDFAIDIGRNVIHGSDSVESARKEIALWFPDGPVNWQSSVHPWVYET

B1: Arabidopsis thaliana nucleoside diphosphate kinase 1 (AtNDK1), wild-type (enzyme, UniProt P39207 1-149, looked up)
chain: MEQTFIMIKPDGVQRGLIGEVICRFEKKGFTLKGLKLISVERSFAEKHYEDLSSKSFFSGLVDYIVSGPVVAMIWEGKNVVLTGRKIIGATNPAASEPGTIRGDFAIDIGRNVIHGSDSVESARKEIALWFPDGPVNWQSSVHPWVYET
notes: Arabidopsis thaliana NDK1, open reading frame cloned into BamHI/EcoRI of pGEX6P-1; Hexamer by analytical SEC; also called WT AtNDK1; Arabidopsis NDK1; source: E. coli T7 express, purified (GSTrap, PreScission cleavage, glutathione agarose, SEC); not shown: GST, N-terminal, cleaved
B2: AtNDK1-K9R (enzyme, Arabidopsis thaliana, UniProt P39207 1-149, looked up)
chain: MEQTFIMIRPDGVQRGLIGEVICRFEKKGFTLKGLKLISVERSFAEKHYEDLSSKSFFSGLVDYIVSGPVVAMIWEGKNVVLTGRKIIGATNPAASEPGTIRGDFAIDIGRNVIHGSDSVESARKEIALWFPDGPVNWQSSVHPWVYET
notes: Arabidopsis thaliana NDK1, mutant open reading frame cloned into BamHI/EcoRI of pGEX6P-1; Elutes as a mix of hexamer and dimer by analytical SEC; source: E. coli T7 express, purified (GSTrap, PreScission cleavage, glutathione agarose, SEC); not shown: GST, N-terminal, cleaved
B3: AtNDK1-K9E (enzyme, Arabidopsis thaliana, UniProt P39207 1-149, looked up)
chain: MEQTFIMIEPDGVQRGLIGEVICRFEKKGFTLKGLKLISVERSFAEKHYEDLSSKSFFSGLVDYIVSGPVVAMIWEGKNVVLTGRKIIGATNPAASEPGTIRGDFAIDIGRNVIHGSDSVESARKEIALWFPDGPVNWQSSVHPWVYET
notes: Arabidopsis thaliana NDK1, mutant open reading frame cloned into BamHI/EcoRI of pGEX6P-1; Elutes as a mix of hexamer and dimer by analytical SEC, dimer peak the larger; source: E. coli T7 express, purified (GSTrap, PreScission cleavage, glutathione agarose, SEC); not shown: GST, N-terminal, cleaved
B4: AtNDK1-K9A (enzyme, Arabidopsis thaliana, UniProt P39207 1-149, looked up)
chain: MEQTFIMIAPDGVQRGLIGEVICRFEKKGFTLKGLKLISVERSFAEKHYEDLSSKSFFSGLVDYIVSGPVVAMIWEGKNVVLTGRKIIGATNPAASEPGTIRGDFAIDIGRNVIHGSDSVESARKEIALWFPDGPVNWQSSVHPWVYET
notes: as for B2

What was measured:
[1] = target: T1, AtNDK1 (Arabidopsis nucleoside diphosphate kinase 1); test: NDK assay, ATP formation by ATP determination kit; assay type: biochemical
[2] = target: T1, AtNDK1 (Arabidopsis nucleoside diphosphate kinase 1); test: NDK assay, ATP formation by ATP determination kit; assay type: biochemical; details: substrate inhibition by ADP (fit of Michaelis-Menten data with 0-100 μM ADP); 50 μM GTP; 2 mM MgCl2, pH 7.6, 25 °C
[3] = substrate: Nc1nc2c(ncn2[C@@H]2O[C@H](COP(=O)(O)OP(=O)(O)OP(=O)(O)O)[C@@H](O)[C@H]2O)c(=O)[nH]1; test: NDK assay, ATP formation by ATP determination kit; assay type: biochemical, Arabidopsis thaliana; details: 35 μM ADP fixed, 0-100 μM GTP, 2 mM MgCl2, pH 7.6, 25 °C
[4] = substrate: Nc1ncnc2c1ncn2[C@@H]1O[C@H](COP(=O)(O)OP(=O)(O)O)[C@@H](O)[C@H]1O; test: NDK assay, ATP formation by ATP determination kit; assay type: biochemical, Arabidopsis thaliana; details: 50 μM GTP fixed, 0-100 μM ADP, substrate inhibition model, 2 mM MgCl2, pH 7.6, 25 °C
[5] = target: the molecule itself; test: SEC; analytical SEC, Superose 6 increase 10/300 GL; 30 mM Tris pH 7.9, 200 mM NaCl, 1 mM DTT, 1 mM EDTA; sample ~1 mg/mL, 100 uL injected; size and oligomeric state approximated from retention volume and a standard curve; self-association (hexamer, dimer)
[6] = target: the molecule itself; test: as above; remark: listed apart in the source

Molecule	IC50 [1] [nM]	Ki [2] [nM]	Km [3] [µM]	Km [4] [µM]	relative absorbance maximum of the (AtNDK1)2 peak [5]	relative absorbance maximum of the (AtNDK1)6 peak [5]	stoichiometry N [6]
Nc1nc2c(ncn2[C@@H]2O[C@H](COP(=O)(O)OP(=O)(O)OP(O)(O)=S)[C@@H](O)[C@H]2O)c(=O)[nH]1 [GTPγS, guanosine 5′-O-[γ-thio] triphosphate]	681	–	–	–	–	–	–
Nc1ncnc2c1ncn2[C@@H]1O[C@H](COP(=O)(O)OP(=O)(O)O)[C@@H](O)[C@H]1O [ADP]	–	132000	–	–	–	–	–
B1	–	–	22.4	24.6	0.1	1	6
B2	–	–	–	–	0.25	1	6 and 2
B3	–	–	–	–	1	0.4	6 and 2
B4	–	–	–	–	0.73	1	6 and 2

— PMC10815852, “A Non-Functional Carbon Dioxide-Mediated Post-Translational Modification on Nucleoside Diphosphate Kinase of Arabidopsis thaliana” (International Journal of Molecular Sciences, 2024)
